Columns and labels:
[1] = target: T1, HA-Halo-MC3R (melanocortin-3 receptor) (human, UniProt P41968 1-323, CA-Sulfo646 dye on the Halo tag (SiMPull)); experiment: single-molecule pull-down (SiMPull) with photobleaching step counting; two colours: lysate of HEK293 cells cotransfected with 300 ng HA-Halo-tagged and 600 ng FLAG-CLIP-tagged plasmid, labelled at the surface with CA-Sulfo646 and BC-DY547, lysed in 0.5% LMNG/0.05% CHS; HA-tagged protein immobilised on HA antibody; co-localised spots and bleaching steps counted by TIRF; settings: partners not purified
T1 construct: melanocortin-3 receptor (MC3R), human; S14 and the UBIRA repository (DOI 10.25500/edata.bham.00001385); also called ss-HA-Halo-MC3R; source: HEK293 (AD-293), transiently transfected, in lysate (LMNG-CHS) or in cells; not shown: HA, N-terminal, kept; Halo, N-terminal, kept

[2] = target: the molecule itself; experiment: single-molecule pull-down (SiMPull) with photobleaching step counting; one colour: HEK293 cells expressing the HA-Halo-tagged protein alone, labelled at the surface with membrane-impermeable CA-Sulfo646, lysed in 0.5% LMNG/0.05% CHS, immobilised by the HA tag on slides with biotinylated HA antibody, single molecules imaged by TIRF

T1 sequence (P41968 whole entry): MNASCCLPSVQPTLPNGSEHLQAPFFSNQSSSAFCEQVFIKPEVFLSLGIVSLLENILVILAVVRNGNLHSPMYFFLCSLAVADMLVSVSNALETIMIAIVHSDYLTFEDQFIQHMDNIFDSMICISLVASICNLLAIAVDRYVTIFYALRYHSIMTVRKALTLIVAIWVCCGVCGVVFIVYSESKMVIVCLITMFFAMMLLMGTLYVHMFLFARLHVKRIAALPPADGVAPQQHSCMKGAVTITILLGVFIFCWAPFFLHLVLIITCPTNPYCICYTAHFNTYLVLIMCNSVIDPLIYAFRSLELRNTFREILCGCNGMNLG

stoichiometry N [1] [MRAP2 per MC3R]	Binder	stoichiometry N [2]
1	FLAG-CLIP-MRAP2 (melanocortin-2 receptor accessory protein 2) (natural protein, human, UniProt Q96G30 1-205, looked up, BC-DY547 (CLIP-surface 547) dye on the CLIP tag, melanocortin-2 receptor accessory protein 2 (MRAP2), human; S14 and the UBIRA repository; also called ss-FLAG-CLIP-MRAP2; source: HEK293 (AD-293), transiently transfected, in lysate (LMNG-CHS); not shown: FLAG, N-terminal, kept; CLIP, N-terminal, kept) MSAQRLISNRTSQQSASNSDYTWEYEYYEIGPVSFEGLKAHKYSIVIGFWVGLAVFVIFMFFVLTLLTKTGAPHQDNAESSEKRFRMNSFVSDFGRPLEPDKVFSRQGNEESRSLFHCYINEVERLDRAKACHQTTALDSDVQLQEAIRSSGQPEEELNRLMKFDIPNFVNTDQNYFGEDDLLISEPPIVLETKPLSQTSHKDLD	–
–	mGluR2 (receptor, UniProt P31421 19-872, looked up, metabotropic glutamate receptor 2 (mGluR2); also called dimeric GPCR mGluR2) EGPAKKVLTLEGDLVLGGLFPVHQKGGPAEECGPVNEHRGIQRLEAMLFALDRINRDPHLLPGVRLGAHILDSCSKDTHALEQALDFVRASLSRGADGSRHICPDGSYATHSDAPTAVTGVIGGSYSDVSIQVANLLRLFQIPQISYASTSAKLSDKSRYDYFARTVPPDFFQAKAMAEILRFFNWTYVSTVASEGDYGETGIEAFELEARARNICVATSEKVGRAMSRAAFEGVVRALLQKPSARVAVLFTRSEDARELLAATQRLNASFTWVASDGWGALESVVAGSERAAEGAITIELASYPISDFASYFQSLDPWNNSRNPWFREFWEERFHCSFRQRDCAAHSLRAVPFEQESKIMFVVNAVYAMAHALHNMHRALCPNTTHLCDAMRPVNGRRLYKDFVLNVKFDAPFRPADTDDEVRFDRFGDGIGRYNIFTYLRAGSGRYRYQKVGYWAEGLTLDTSFIPWASPSAGPLPASRCSEPCLQNEVKSVQPGEVCCWLCIPCQPYEYRLDEFTCADCGLGYWPNASLTGCFELPQEYIRWGDAWAVGPVTIACLGALATLFVLGVFVRHNATPVVKASGRELCYILLGGVFLCYCMTFVFIAKPSTAVCTLRRLGLGTAFSVCYSALLTKTNRIARIFGGAREGAQRPRFISPASQVAICLALISGQLLIVAAWLVVEAPGTGKETAPERREVVTLRCNHRDASMLGSLAYNVLLIALCTLYAFKTRKCPENFNEAKFIGFTMYTTCIIWLAFLPIFYVTSSDYRVQTTTMCVSVSLSGSVVLGCLFAPKLHIILFQPQKNVVSHRAPTSRFGSAAPRASANLGQGSGSQFVPTVCNGREVVDSTTSSL	2
